Measurements: IntAct's records for PubMed 18829461

B1: Protein phosphatase 1A (Homo sapiens), P35813 (parent)
chain: MGAFLDKPKMEKHNAQGQGNGLRYGLSSMQGWRVEMEDAHTAVIGLPSGLESWSFFAVYDGHAGSQVAKYCCEHLLDHITNNQDFKGSAGAPSVENVKNGIRTGFLEIDEHMRVMSEKKHGADRSGSTAVGVLISPQHTYFINCGDSRGLLCRNRKVHFFTQDHKPSNPLEKERIQNAGGSVMIQRVNGSLAVSRALGDFDYKCVHGKGPTEQLVSPEPEVHDIERSEEDDQFIILACDGIWDVMGNEELCDFVRSRLEVTDDLEKVCNEVVDTCLYKGSRDNMSVILICFPNAPKVSPEAVKKEAELDKYLECRVEEIIKKQGEGVPDLVHVMRTLASENIPSLPPGGELASKRNVIEAVYNRLNPYKNDDTDSTSTDDMW

Variants of: B1
Conditions: with cdk9_human CDK9, P50750
Chain of cdk9_human CDK9, P50750 (P50750 whole entry): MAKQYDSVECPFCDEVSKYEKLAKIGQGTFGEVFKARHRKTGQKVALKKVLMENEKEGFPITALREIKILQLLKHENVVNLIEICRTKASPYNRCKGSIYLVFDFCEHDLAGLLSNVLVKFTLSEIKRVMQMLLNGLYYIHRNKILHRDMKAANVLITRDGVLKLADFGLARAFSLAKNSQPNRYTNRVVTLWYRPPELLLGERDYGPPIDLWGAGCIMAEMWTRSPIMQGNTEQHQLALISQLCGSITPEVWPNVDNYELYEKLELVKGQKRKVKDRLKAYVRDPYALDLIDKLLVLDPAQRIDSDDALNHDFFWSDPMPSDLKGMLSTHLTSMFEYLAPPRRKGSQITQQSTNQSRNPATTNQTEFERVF

Row | Variant | effect of a mutation on the interaction
1 | D239N | with no effect
